Measured values as given in patent US20250043302A1, “MUTATED HYDROXYPHENYLPYRUVATE DIOXYGENASE POLYPEPTIDE, AND CODING GENE AND USE THEREOF” (BEIJING DABEINONG BIOTECHNOLOGY CO., LTD., priority 2021, published 2025).

Columns and labels:
Assay type in all cases: in vivo
[1] = tested on: Arabidopsis thaliana T1 plants; assay: Isoxaflutole tolerance of transgenic Arabidopsis thaliana T1 plants (spray, bleached leaf area grade, damage score); parameters: Scores (pesticide damage): scale not given here; details: spray, Arabidopsis thaliana T1 plants; for Classification and statistics of the grade of pesticide damage: Grade 0 (number of plants) / Classification and statistics of the grade of pesticide damage: Grade 1 (number of plants) / Classification and statistics of the grade of pesticide damage: Grade 2 (number of plants) / Classification and statistics of the grade of pesticide damage: Grade 3 (number of plants): 16 plants
Procedure, shortened: (§1)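 Damage was assessed by bleaching grade (0 none; 1 <50%; 2 >50%; 3 100% of leaf area) one week after spraying. Sprays on 18-day-old T1 and wild-type plants used field-rate multiples: topramezone 25–200, isoxaflutole 35–280, mesotrione 52.5–420 g ai/ha.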

[2] = tested on: Arabidopsis thaliana T1 plants; assay: Topramezone tolerance of transgenic Arabidopsis thaliana T1 plants (spray, bleached leaf area grade, damage score); details: 7 DAT, Table 4; for Classification and statistics of the grade of pesticide damage: Grade 0 / Classification and statistics of the grade of pesticide damage: Grade 1 / Classification and statistics of the grade of pesticide damage: Grade 2 / Classification and statistics of the grade of pesticide damage: Grade 3: number of plants; for Scores: pesticide damage score 0-100
Procedure, shortened: as §1

[3] = tested on: Arabidopsis thaliana T1 plants; assay: Mesotrione tolerance of transgenic Arabidopsis thaliana T1 plants (spray, bleached leaf area grade, damage score); parameters: Scores: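 damage score 0-100 computed as Σ(N×S)/(T×M)×100 over grades 0-3 with higher meaning more damage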; details: Arabidopsis thaliana T1 plants; for Grade 0 (classification and statistics of the grade of pesticide damage; number of plants) / Grade 1 (classification and statistics of the grade of pesticide damage; number of plants) / Grade 2 (classification and statistics of the grade of pesticide damage; number of plants) / Grade 3 (classification and statistics of the grade of pesticide damage; number of plants): 16 plants
Procedure, shortened: as §1

[4] = isoxaflutole 35 g ai/ha (0.5x field concentration)
[5] = isoxaflutole 70 g ai/ha (1x field concentration)

B1: AtHPPDm-F383W-02: nucleotide sequence encoding Arabidopsis thaliana HPPD with F383W; vector DBN11732 (nucleic acid)
DNA: ATGGGACATCAGAATGCTGCTGTATCAGAAAATCAAAATCATGATGATGGAGCCGCCTCCTCACCAGGGTTTAAGTTGGTTGGGTTCTCCAAGTTTGTACGGAAGAACCCAAAATCCGACAAGTTCAAGGTTAAACGCTTCCACCACATTGAATTCTGGTGCGGCGACGCCACCAATGTTGCTCGGCGTTTTTCATGGGGTTTAGGCATGAGATTCTCAGCAAAGAGTGACCTGAGCACCGGCAACATGGTTCATGCTAGCTATCTCTTAACATCTGGAGATTTGAGGTTTCTTTTCACGGCGCCGTACTCACCATCACTCTCCGCCGGCGAGATCAAACCCACCACGACTGCAAGCATACCTTCATTTGATCATGGTAGTTGCAGATCCTTCTTCTCGTCGCACGGCCTAGGGGTGCGCGCGGTCGCCATCGAAGTTGAAGATGCAGAATCAGCGTTTAGTATCAGCGTGGCAAATGGAGCTATTCCTTCCTCCCCTCCAATTGTCCTCAATGAGGCTGTAACTATTGCCGAGGTGAAGTTGTATGGAGATGTTGTGCTGAGATATGTTTCTTACAAGGCAGAGGACACTGAGAAATCTGAATTTTTGCCTGGTTTTGAAAGGGTCGAGGATGCTTCAAGTTTTCCTCTTGATTACGGCATACGACGGTTGGATCACGCGGTTGGAAATGTACCAGAACTTGGGCCGGCGCTCACTTATGTGGCTGGTTTCACTGGATTCCATCAATTTGCTGAGTTCACAGCTGATGATGTTGGGACTGCTGAAAGTGGGTTGAACTCTGCAGTCCTCGCCTCTAATGATGAAATGGTGCTCCTCCCGATCAACGAGCCTGTGCATGGCACCAAAAGGAAATCACAAATACAGACATATCTTGAGCACAATGAAGGTGCAGGGCTTCAACATCTTGCACTGATGTCTGAAGACATTTTCCGTACGCTGAGAGAGATGAGGAAGAGAAGTAGTATTGGTGGATTTGACTTCATGCCTTCTCCCCCACCAACTTACTACCAGAACTTGAAGAAGAGGGTTGGTGATGTGCTATCTGATGACCAGATCAAGGAGTGTGAAGAATTGGGCATTCTTGTTGATCGGGACGACCAAGGAACATTACTGCAGATATTTACAAAACCACTTGGTGACCGCCCCACTATTTGGATTGAGATCATACAAAGAGTCGGCTGCATGATGAAGGATGAGGAAGGAAAAGCATATCAATCTGGTGGTTGTGGCGGCTTTGGGAAAGGAAACTTCTCTGAGCTGTTCAAATCCATCGAGGAGTATGAGAAGACCTTGGAGGCCAAGCAGCTCGTGGGTTGA
modifications: AtHPPDm-F383W-02 Nucleotide Sequence
notes: vector DBN11732
Resistance evaluation [1, 4]: Non-resistant | Scores (pesticide damage) [1, 4]: 77 | Classification and statistics of the grade of pesticide damage: Grade 0 (number of plants) [1, 4]: 0 | Classification and statistics of the grade of pesticide damage: Grade 1 (number of plants) [1, 4]: 2 | Classification and statistics of the grade of pesticide damage: Grade 2 (number of plants) [1, 4]: 7 | Classification and statistics of the grade of pesticide damage: Grade 3 (number of plants) [1, 4]: 7 | Resistance evaluation [1, 5]: Non-resistant | Scores (pesticide damage) [1, 5]: 100 | Classification and statistics of the grade of pesticide damage: Grade 0 (number of plants) [1, 5]: 0 | Classification and statistics of the grade of pesticide damage: Grade 1 (number of plants) [1, 5]: 0 | Classification and statistics of the grade of pesticide damage: Grade 2 (number of plants) [1, 5]: 0 | Classification and statistics of the grade of pesticide damage: Grade 3 (number of plants) [1, 5]: 16 | Classification and statistics of the grade of pesticide damage: Grade 0 ([2]; topramezone 25 g ai/ha (1×)): 0 | Classification and statistics of the grade of pesticide damage: Grade 1 ([2]; topramezone 25 g ai/ha (1×)): 2 | Classification and statistics of the grade of pesticide damage: Grade 2 ([2]; topramezone 25 g ai/ha (1×)): 5 | Classification and statistics of the grade of pesticide damage: Grade 3 ([2]; topramezone 25 g ai/ha (1×)): 9 | Classification and statistics of the grade of pesticide damage: Grade 0 ([2]; topramezone 100 g ai/ha (4×)): 0 | Classification and statistics of the grade of pesticide damage: Grade 1 ([2]; topramezone 100 g ai/ha (4×)): 0 | Classification and statistics of the grade of pesticide damage: Grade 2 ([2]; topramezone 100 g ai/ha (4×)): 2 | Classification and statistics of the grade of pesticide damage: Grade 3 ([2]; topramezone 100 g ai/ha (4×)): 14 | Scores ([2]; topramezone 25 g ai/ha (1×)): 81 | Scores ([2]; topramezone 100 g ai/ha (4×)): 96 | Resistance evaluation ([2]; topramezone 25 g ai/ha (1×)): non-resistant (non-resistant plants (scores 68-100)) | Resistance evaluation ([2]; topramezone 100 g ai/ha (4×)): non-resistant (non-resistant plants (scores 68-100)) | Resistance evaluation ([3]; mesotrione 52.5 g ai/ha): Non-resistant | Scores ([3]; mesotrione 52.5 g ai/ha): 100 | Grade 0 (classification and statistics of the grade of pesticide damage; number of plants) ([3]; mesotrione 52.5 g ai/ha): 0 | Grade 1 (classification and statistics of the grade of pesticide damage; number of plants) ([3]; mesotrione 52.5 g ai/ha): 0 | Grade 2 (classification and statistics of the grade of pesticide damage; number of plants) ([3]; mesotrione 52.5 g ai/ha): 0 | Grade 3 (classification and statistics of the grade of pesticide damage; number of plants) ([3]; mesotrione 52.5 g ai/ha): 16 | Resistance evaluation ([3]; mesotrione 105 g ai/ha): Non-resistant | Scores ([3]; mesotrione 105 g ai/ha): 100 | Grade 0 (classification and statistics of the grade of pesticide damage; number of plants) ([3]; mesotrione 105 g ai/ha): 0 | Grade 1 (classification and statistics of the grade of pesticide damage; number of plants) ([3]; mesotrione 105 g ai/ha): 0 | Grade 2 (classification and statistics of the grade of pesticide damage; number of plants) ([3]; mesotrione 105 g ai/ha): 0 | Grade 3 (classification and statistics of the grade of pesticide damage; number of plants) ([3]; mesotrione 105 g ai/ha): 16
